The text below walks through data of patent US20260151494A1.

Assay [1] deals with apical domain of CD71 (Screen 3: 'cynomolgus apical domain of human CD71') (cynomolgus (as paragraph 454 words it; ambiguous)). The experiment in a line: primary ELISA.
The target is the same in assay [2]. The experiment in a line: primary ELISA, RLU ratio to HSA. (In general: ELISA stands for enzyme-linked immunosorbent assay.)

B1: CD71-binding FN3 domain SEQ ID NO: 258 (designed binder)
chain: MSLPAPKNLVVSRVTEDSARLSWTAPDAAFDSFFIGYLEPQPPGEAIVLGVPGSERSYDLTGLKPGTEYNVTIQGVKGGFPSDPLVASFTT
In assay [1], B1 displayed an RLU of 6.79e+06 RLU. Moreover, the Apical domain:HSA in assay [2] worked out at 302.

B2: CD71-binding FN3 domain SEQ ID NO: 253 (designed binder)
chain: MSLPAPKNLVVSRVTEDSARLSWTAPDAAFDSFDINYWENESGGEAIALFVPGSERSYDLTGLKPGTEYWVSIGGVKGGRFSEPLYARFTT
On to B2, for which the RLU in assay [1] came out at 5.78e+06 RLU. Also, the Apical domain:HSA in assay [2] was found to be 530.

B3: CD71-binding FN3 domain SEQ ID NO: 259 (designed binder)
chain: MSLPAPKNLVVSRVTEDSARLSWTAPDAAFDSFYIAYAEPRPDGEAILLEVPGSERSYDLTGLKPGTEYSVLIHGVKGGLLSSPLSATFTT
Regarding B3, the RLU in assay [1] stood at 5.16e+06 RLU. Moreover, the Apical domain:HSA in assay [2] was found to be 411.

B4: CD71-binding FN3 domain SEQ ID NO: 261 (designed binder)
chain: MSLPAPKNLVVSRVTEDSARLSWTAPDAAFDSFYIAYAEPRPDGEAILLWVPGSERSYDLTGLKPGTEYSVLIHGVKGGLLSSPLHAYFTT
With B4, the RLU in assay [1] was found to be 4.57e+06 RLU. In addition, in assay [2], the Apical domain:HSA was 714.

B5: CD71-binding FN3 domain SEQ ID NO: 247 (designed binder)
chain: MSLPAPKNLVVSRVTEDSARLSWTAPDAAFDSFEIGYFENLYLGEAIVLTVPGSERSYDLTGLKPGTEYWVQIGGVKGGEWSAPLSAIFTT
For the molecule B5, the RLU in assay [1] worked out at 4.45e+06 RLU. The Apical domain:HSA in assay [2] turned out to be 679.

B6: CD71-binding FN3 domain SEQ ID NO: 249 (designed binder)
chain: MSLPAPKNLVVSRVTEDSARLSWTAPDAAFDSFEIGYWENAYRGEAIVLTVPGSERSYDLTGLKPGTEYVVFIGGVKGGVWSVPLSAIFTT
The molecule B6 yielded an RLU in assay [1] of 4.81e+06 RLU. Besides, in assay [2], the Apical domain:HSA was 556.

B7: CD71-binding FN3 domain SEQ ID NO: 256 (designed binder)
chain: MSLPVPKNLVVSRVTEDSARLSWTAPDAAFDSFEIGYFENLYLGEAIVLTVPGSERSYDLTGLKPGTEYWVQIGGVKGGNWSAPLSAIFTT
In assay [1], B7 showed an RLU of 4.92e+06 RLU. For the same molecule, the Apical domain:HSA in assay [2] is 399.

B8: CD71-binding FN3 domain SEQ ID NO: 250 (designed binder)
chain: MSLPAPKNLVVSRVTEDSARLSWTAPDAAFDSFEIGYFENLYLGEAIVLTVPGSERSYDLTGLKPGTEYWVQIGGVNGGNWSAPLSAIFTT
In the case of B8, in assay [1], the RLU was determined as 5.11e+06 RLU. Besides, in assay [2], the Apical domain:HSA is 211.

B9: CD71-binding FN3 domain SEQ ID NO: 257 (designed binder)
chain: MSLPAPKNLVVSHVTEDSARLSWTAPDAAFDSFEIGYWENAYKGEAIVLTVPGSERSYDLTGLKPGTEYVVFIGGVKGGVWSVPLSAIFTT
With B9, the RLU in assay [1] worked out at 5.15e+06 RLU. The Apical domain:HSA in assay [2] was found to be 687.

B10: CD71-binding FN3 domain SEQ ID NO: 254 (designed binder)
chain: MSLPAPKNLVVSRVTEDSARLSWTAPDAAFDSFEIGYFENLYLGEAIVLWVPGSERSYDLTGLKPGTEYWVQIGGVKGGNWSAPLSAIFTT
B10 registered an RLU in assay [1] of 5.11e+06 RLU. In addition, the Apical domain:HSA in assay [2] worked out at 448.

B11: CD71-binding FN3 domain SEQ ID NO: 251 (designed binder)
chain: MSLPAPKNLVVSRVTEDSARLSWTAPDAAFDSFEIGYFENLYLGEAIVLTVPGSERSYDLTGLKPGTEYWVQIGGVKGGNWSAPLVATFTT
B11 had an RLU in assay [1] of 5.1e+06 RLU. In addition, in assay [2], the Apical domain:HSA is 903.

B12: CD71-binding FN3 domain SEQ ID NO: 255 (designed binder)
chain: MSLPAPKNLVVSRVTEDSARLSWTTPDAAFDSFEIAYFEIAWLGEAIVLTVPGSERSYDLTGLKPGTEYWVQIGGVKGGAYSTPLSAIFTT
B12 registered an RLU in assay [1] of 5.41e+06 RLU. Also, in assay [2], the Apical domain:HSA turned out to be 131.

B13: CD71-binding FN3 domain SEQ ID NO: 248 (designed binder)
chain: MSLPAPKNLVVSRVTEDSARLSWTAPDAAFDSFEIGYFENLYLGEAIVLTVPGSERSYDLTGLKPGTEYVVFIGGVKGGDFSPPLSAIFTT
For B13, the RLU in assay [1] was determined as 5.12e+06 RLU. Besides, the Apical domain:HSA in assay [2] is 550.
